Read-outs that look alike come from different tables or passages of the source. Ends that are not written are not given here.
B1: APT2439: Recombinant human CD59 (lacking the GPI anchor), with an amino-terminal methionine and a carboxy-terminal cysteine, expressed in E. coli (protein)
chain: MLQCYNCPNPTADCKTAVNCSSDFDACLITKAGLQVYNKCWKFEHCNFNDVTTRLRENELTYYCCKKDLCNFNEQLENC
B2: APT3073: disulphide conjugate of APT2439 and APT2258 (Myr-GSSKSPSKKDDKKPGDC (2-SPy)-NH2) (conjugate)
chain: B1 chain
peptide: GSSKSPSKKDDKKPGDC
B3: APT3280: disulphide conjugate of APT2439 and APT3146 (thiopyridylated bisMyr-KSSKSPSKKDDKKPGDC) (conjugate)
chain: B1 chain
peptide: KSSKSPSKKDDKKPGDC

Assays:
Assay type in all cases: cell-based
[1] = test system: sheep erythrocytes; experiment: Anti-haemolytic assay: classical pathway mediated haemolysis of sheep erythrocytes, presence of bovine serum albumin; conditions: 40 mg/ml BSA (fatty acid free); non-stick plates; Example 3; read-out: IH50 (the source's name)
Method: Anti-Complement Activity of Acylated Peptide/APT154 Conjugates in the Presence of Bovine Serum Albumin (BSA)
7 wells of each of 4 lanes, missing the uppermost well, on a flat-bottomed microtitre plate were filled with 200 μL of the BSA/diluent solution. Into the uppermost wells, the required volume each test/control sample (APT3328, APT33330, APT33331 and APT070) was aliquotted, immediately followed by enough BSA/diluent solution to make the total volume up to 300 μL, to ensure a final concentration of 1.2 μM.
These 1.2 μM wells were then diluted across a 3 log dilution gradient and the rest of the assay performed as for the peptide/APT154 conjugates. The BSA diluent solution was used instead of pure diluent except for the Ao lane of the reaction plate, for which pure diluent (50 μL) and the BSA/diluent solution (50 μL) were aliquotted. The whole assay was repeated.
[…] In the Ao lane of the reaction plate, for which pure diluent (50 μL) and the BSA/diluent solution (50 μL) were aliquotted.
Multiple anti-haemolytic assays were performed on the reaction mixture of more than one batch of APT3147, in the presence and absence of fatty acid free bovine serum albumin (BSA) at both 4 mg/ml and 40 mg/ml, on non-stick plates.

[2] = test system: sheep erythrocytes; experiment: Anti-haemolytic assay: classical pathway mediated haemolysis of sheep erythrocytes, absence of albumin; conditions: No BSA; non-stick plates; Example 3; read-out: IH50 (the source's name)
Method: The Anti-complement activity of the modified SCR1-3 agents was measured by classical pathway mediated haemolysis of sheep erythrocytes.
Step 1—The Dilution Plate
7 wells of each of 9 lanes, missing the uppermost well, on a flat-bottomed microtitre plate were filled with 200 μL of diluent (0.100 M Hepes, 0.150 M NaCl, 0.100% gelatin, adding NaOH to pH 7.4).
Into the uppermost wells, the required volume of each test/control sample was aliquotted, immediately followed by enough diluent to make the total volume up to 300 μL, to ensure a final concentration of 1.2 μM.
Using a multichannel Gilson pipette, all 9 top wells were mixed and 100 μL were transferred from these wells to the corresponding wells in 2nd row. […]
After incubation the plates were centrifuged at 1600 rpm for 3 min and the Nescofilm removed. 150 μL of supernatant from each well of the two plates was then transferred into the corresponding wells of two new microtitre plates and the absorbance of each well measured at 405 nm using a plate reader.
% inhibition was calculated using the following formula:
[formula] wherein: • Ao=the mean value of the absorbances in lane 1 • Amax=the mean value of the absorbances in lane 2 • t=the mean of the two absorbance values for each sample at any given concentration. […]

[3] = test system: MAC formation on guinea pig erythrocytes; experiment: Reactive lysis system: inhibition of MAC formation on guinea pig erythrocytes; conditions: for IC50: read-out: IH50 (concentration of protein required to achieve 50% inhibition of lysis)
Method: The ability of APT2439, APT3073 and APT3280 to inhibit MAC formation on guinea pig erythrocytes, was tested in a reactive lysis system. The effect of human albumin (HSA) on this activity was also investigated. Test samples were prepared at a range of concentrations in the presence or absence of 8 mg/ml fatty acid free HSA (Sigma, UK). 50 μL of these dilutions was added to 50 μL of a 5% suspension of guinea pig erythrocytes in PBS/0.1% gelatin, and incubated for 30 minutes at 37° C. 10 μL of human C5b6 complex (C5b6 was partially purified from acute phase serum) in PBS containing 15 mM EDTA and 0.1% gelatin, was added to the guinea pig erythrocyte suspension. 40 μL of normal human serum, diluted in PBS containing 15 mM EDTA and 0.1% gelatin was added as a source of C7, C8 and C9, and the suspension was incubated for 1 hour at 37 degrees Celsius. (The concentrations of C5b6 and normal human serum required to achieve about 80% lysis of guinea pig erythrocytes was pre-determined by titration.) The reaction mixtures were centrifuged for 5 minutes at 1000×g and the degree of haemolysis was determined by measuring the absorbance of the supernatant at 410 nm. To determine background lysis, a control reaction was prepared without serum. To determine maximal lysis, a control reaction containing no inhibitor (or test sample) was prepared. The percentage inhibition of haemolysis was determined for each protein at each concentration. An IH50 value (the concentration of protein required to achieve 50% inhibition of lysis) was determined for each protein in the presence and absence of HSA.

Molecule	IC50 [1] [nM]	IC50 [2] [nM]	IC50 ([3]; Presence of HSA (2.7 mg/ml)) [nM]	concentrations required to achieve complete inhibition of haemolysis ([3]; absence of HSA)	IC50 ([3]; absence of HSA) [nM]	decrease in potency in the presence of HSA ([3]; presence of HSA)	increase in potency compared to APT2439 ([3]; absence of HSA) [log]	decrease in potency compared to its potency in the absence of HSA ([3]; presence of HSA, final concentration 2.7 mg/ml) [log]
APT3147: bismyr-GSSKSPSKKKKKKPGDC conjugated to SCR1-3; SEQ ID NO: 26; two myristoyl groups (not fully specified (N-terminus); printed as bismyr-GSSKSPSKKKKKKPGDC; also: two myristoyl groups (bismyr-), places not given here, conjugated to SCR1-3) [bismyr-… conjugated to SCR1-3; two myristoyl groups]	2.2	2.2						
B1			400	mM concentrations	600	did not demonstrate any decrease in potency		
B2			6		0.8		~3	1
B3			0.08		0.1	did not demonstrate any decrease in potency	~4	

Source: patent US8455447B2, “Modified therapeutic agents” (priority 2002, dated 2013)
